In the supplement of paper PMC9170038:

System: MS2 coat protein
Assay: apparent KD of MS2 coat protein; designed switch direction (-1 OFF switch, 1 ON switch): -1; higher = weaker reporter binding
Method in brief: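 Designed RNA switches sharing common flanks were transcribed on Illumina chips by stalled E. coli RNA polymerase. They were titrated with SNAP-549-labelled MS2 coat protein, from 0.7 or 1.5 nM doubling to 3 µM, in Tris-HCl pH 7.5 buffer with KCl, MgCl2, BSA, DTT, tRNA and Tween-20. Titrations ran without input, with 200 uM small-molecule ligand, or with an oligonucleotide input. The apparent KD of each design is the median over its clusters, after curve-fitting of normalised cluster fluorescence.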

[1] = Eterna round: R95, input ligand: FMN 200 uM
[2] = Eterna round: R95, input ligand: microRNA oligo, concentration not stated
[3] = Eterna round: R95, input ligand: none
[4] = input ligand: microRNA oligo, concentration not stated

Row | Sequence | apparent KD of MS2 coat protein [1] [nM] | apparent KD of MS2 coat protein [2] [nM] | apparent KD of MS2 coat protein [3] [nM] | apparent KD of MS2 coat protein (input ligand: FMN 200 uM) [nM] | apparent KD of MS2 coat protein [4] [nM] | apparent KD of MS2 coat protein (input ligand: none) [nM]
1 | ACAAGCUUUUUGCUCGUCUACAUGAGGAUCACCCAUGUAGUGAGAUAGUGGUGAAGAUAGAAUGAGCGUAGUAGGUA [JR_SV3TOV1_Sub070] (puzzle: Sensor v3, turn-off variant 1) | 14.5 | 34.1 | 10.2 | – | – | –
2 | CUUUUGUGAGGAUAUCAGUAGUAAUACAAUAGUAUUACUACUGAGAAGGCACAUGAGGAUCACCCAUGUUCCUU [Ex4 344 Omei mod 1] (puzzle: Exclusion 4) | – | 14.5 | – | – | – | –
3 | AGCUGUGGCCGAGGAUAUCACAUGAGGAUCACCCAUGUACAUGAUUAAGCCUGGUAACAGGCUCAUGAGAAGGCGGUCUCAGCA [Eli eng2 - 014] (Eterna round: R96, puzzle: Exclusion NG 2) | – | – | – | 12 | 13.1 | 20.6
4 | AGUAGUAGUUUCCGUUCUUACAUGAGGAUCACCCAUGUUUCUUGACGUGCACGCGAUGCUCGUCAGACUACCAGAUG [salish99_TOv1_r3_056] (puzzle: Sensor v3, turn-off variant 1) | 39.3 | 51.3 | 56.9 | – | – | –
5 | AGGUGUCUCUGGAAACAUGAGGAUCACCCAUGUUGAGUUAGCGAGGAUAUCGGUAACCAUUGUUAUGAGAAGGCGCAAACCAGA [Ex NG3 #39] (Eterna round: R96, puzzle: Exclusion NG 3) | – | – | – | 14.8 | 18.3 | 25.4
6 | UUAUACGCUGAGGAUAUCUUCACUAAAGUGUGAAGAGAAGGCGGUACAUGAGGAUCACCCAUGUCUAUGGGCAG [Ex-6 Malc#18] (puzzle: Exclusion 6) | 596 | 568 | 282 | – | – | –
7 | AAUAUGUGAGGAUAUUAGUUGUACGUCAAUAGACGUAUAAGUGAGAAGGCACAUGAGGAUCACCCAUGUUCCUG [Omei Ex4 Mod of Mat's R95 mod of Omei v3] (Eterna round: R97, puzzle: Exclusion 4) | – | – | – | 98.2 | – | 23.7
8 | AUUUUGUCAGGAUAUGACUAGAUGCACGAAAGUGCAUCUACUUAGAAGGGACAUGAGGAUCACCCAUGUAUUCC [Bring Us a Shrubbery-11] (puzzle: Exclusion 4) | – | 13.9 | – | – | – | –
9 | GCCUUAUCCGUCAGGAUAUACAGCCGCUCCCUGUUGUAGAAGGGACAUGAGGAUCACCCAUGUACGUACCACUG [alecazam7] (Eterna round: R97, puzzle: Brourd's mod of Exclusion 4) | – | – | – | 28.7 | – | 22.6
10 | AGAAAUGCCCAUGGCCACAAGCUUUUUGCCUGUCUUACCACAUGAGGAUCACCCAUGUGACAUGGGCUCCUGAUAAU [Didilaeren] (puzzle: Sensor v3, turn-off variant 2) | 15.8 | 305 | 14.3 | – | – | –
11 | AGAAGUAGAAACCGAUCCUACAUGAGGAUCACCCAUGUAGCAAGACGUGCACGCGAAGCUCGUCAGACUACCAGAUG [salish99_TOv1_r3_017] (puzzle: Sensor v3, turn-off variant 1) | 297 | 108 | 313 | – | – | –
12 | AAGAAGAUCAGAGGAUAUGGAGCUGAAACGGCGCUAGAAGGCUGUCUAGUGUAACAUGAGGAUCACCCAUGUAGGGACCUCUAA [EX ng 1 4.3] (Eterna round: R96, puzzle: Exclusion NG 1) | – | – | – | 874 | 795 | 884
13 | AAAUUAGCAAGUAGGUCCGACAUGAGGAUCACCCAUGUAAUCUGAAAUUACGCUGCACGAAAGUGCGCUCGUCUUAG [Sensor-V1 #11] (Eterna round: R97, puzzle: Sensor, turn-off variant 1) | – | – | – | 149 | – | 149
14 | AUAGUCUGGCAAGGAUAUAGGAAAGGAAGUGUACUAGAAGGUGCGCAGACAUGAGGAUCACCCAUGUGAGCCGACGAAAUAAUA [PowerStrip EXNG 1.17] (Eterna round: R96, puzzle: Exclusion NG 1) | – | – | – | 523 | 88.5 | 141
15 | GAUCUGACAGGAUAUACAUGAGGAUCACCCAUGUGCGUGCUAGCGAAAGCUAGCGCAGGUAGAAGGGUCAGAUC [Ex3 dot plot directed v4] (puzzle: Exclusion 3) | 14.4 | 11.3 | 12.9 | – | – | –
16 | CAGUACUGAGGAUAUACAUGAGGAUCACCCAUGUGUUCCAGCUAGGAAACUAGCAAAAGUAGAAGGCAGUACUG [salish99_ex3_r3_064] (puzzle: Exclusion 3) | 285 | 19.6 | 22.4 | – | – | –
17 | CUGAGCAGACGGAGAUCCCACAUGAGGAUCACCCAUGUCUCAAAAGCUUUUUGCUUGUCUUAUUCUCCUCUGUUCUC [Arorza] (puzzle: Sensor v3, turn-off variant 1) | 13.9 | 100 | 11.4 | – | – | –
18 | UUUUUAGAUGAAGGAUAUACUUAACAUGAGGAUCACCCAUGUGGUGUUGUGAGUGAGUGAGUUUAGUAGAAGGUCAAGUAUUUU [JMF's solution 45] (Eterna round: R96, puzzle: Exclusion NG 2) | – | – | – | 769 | 377 | 404
19 | AUUAAACGUGUAGGAUAUGCGUGGCGAAGCUAUGCAGAAGGACAUGAGGAUCACCCAUGUUCUAGCGUCUGCGUACAGAUGCUA [JL eng1 1.35 mod 5] (Eterna round: R96, puzzle: Exclusion NG 1) | – | – | – | 25.1 | 11.4 | 16.3
20 | CACAUCAAAGGAUAUCUGGACCAAAACAUGAGGAUCACCCAUGUAUGAACAUGGCUCGACGGAGAAGGUUGGCUUC [Eternabot (L1) Solution 51] (Eterna round: R97, puzzle: Exclusion 5) | – | – | – | 86.2 | – | 79.3
21 | CCCGUCGAUGUAGGAUAUGCCCGGGUCUCCCGGGCAGAAGGACAUGAGGAUCACCCAUGUUCAUGAGGGUCGCCCAUGAAUGGG [Double but mutated MS2] (Eterna round: R96, puzzle: Exclusion NG 1) | – | – | – | 88.8 | 17 | 21.2
22 | GAGUGACAUGAGGAUCACCCAUGUAAGGAUAUACGGUUGGUAGAGAGAGGGAAAAGAGGUAGAAGGUACGAAGG [JR_Exclu1_Sub056] (puzzle: Exclusion 1) | 43.9 | 56 | 76.2 | – | – | –
23 | UAUAUGUCAGGAUAUUAGUAGUGGAUGAAUAAGAUUAUUGCUGAGAAGGGACAUGAGGAUCACCCAUGUUCCUC [JR_Ex4_Sub002] (Eterna round: R97, puzzle: Exclusion 4) | – | – | – | 27.5 | – | 18.5
24 | CCAAGAAUAGGAUAUACACCAUGUCAGCUUCUAUACAUCGCACAUGAGGAUCACCCAUGUAGAAGGGUUCUCUC [Exclusion-2-#4] (Eterna round: R97, puzzle: Exclusion 2) | – | – | – | 369 | – | 282
25 | UAUAUAUAGUAAGGAUAUGUAAUUAUUUUAUUAACAGAAGGUACUGACAUGAGGAUCACCCAUGUUUUAGUGUGGGCAUGUAGA [JMF's solution 47] (Eterna round: R96, puzzle: Exclusion NG 1) | – | – | – | – | 72.6 | –
